Measured values taken from patent US20230340152A1 (published 2023).
Substitutions are numbered along the chain they refer to. Names and notes keep the numbering of the source.

How the values were obtained:
[1] = biological target: T1, Human CD73 on cells (MDA-MB-231, Jurkat CD73 knock-in, NCI-H322) (human, UniProt P21589 27-549); assay: cell-based or functional assay
T1 sequence: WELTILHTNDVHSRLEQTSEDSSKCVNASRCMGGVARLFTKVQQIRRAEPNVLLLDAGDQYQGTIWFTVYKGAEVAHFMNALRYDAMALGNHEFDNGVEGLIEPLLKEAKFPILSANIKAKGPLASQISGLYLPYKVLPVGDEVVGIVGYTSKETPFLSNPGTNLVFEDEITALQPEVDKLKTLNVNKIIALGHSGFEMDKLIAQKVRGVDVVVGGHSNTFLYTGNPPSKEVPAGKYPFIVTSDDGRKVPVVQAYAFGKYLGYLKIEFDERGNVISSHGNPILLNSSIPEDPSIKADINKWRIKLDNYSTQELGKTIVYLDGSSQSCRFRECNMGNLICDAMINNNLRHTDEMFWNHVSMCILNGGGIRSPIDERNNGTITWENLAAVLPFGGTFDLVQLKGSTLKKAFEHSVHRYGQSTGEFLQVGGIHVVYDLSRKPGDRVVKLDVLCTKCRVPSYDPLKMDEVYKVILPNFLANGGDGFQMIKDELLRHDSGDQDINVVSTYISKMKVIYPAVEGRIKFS

[2] = biological target: T2, Human CD73 N185G, His-tagged (human, UniProt P21589 27-549); assay: SPR (ProteOn), CD73 variant immobilized; 2:1 fit
T2 sequence: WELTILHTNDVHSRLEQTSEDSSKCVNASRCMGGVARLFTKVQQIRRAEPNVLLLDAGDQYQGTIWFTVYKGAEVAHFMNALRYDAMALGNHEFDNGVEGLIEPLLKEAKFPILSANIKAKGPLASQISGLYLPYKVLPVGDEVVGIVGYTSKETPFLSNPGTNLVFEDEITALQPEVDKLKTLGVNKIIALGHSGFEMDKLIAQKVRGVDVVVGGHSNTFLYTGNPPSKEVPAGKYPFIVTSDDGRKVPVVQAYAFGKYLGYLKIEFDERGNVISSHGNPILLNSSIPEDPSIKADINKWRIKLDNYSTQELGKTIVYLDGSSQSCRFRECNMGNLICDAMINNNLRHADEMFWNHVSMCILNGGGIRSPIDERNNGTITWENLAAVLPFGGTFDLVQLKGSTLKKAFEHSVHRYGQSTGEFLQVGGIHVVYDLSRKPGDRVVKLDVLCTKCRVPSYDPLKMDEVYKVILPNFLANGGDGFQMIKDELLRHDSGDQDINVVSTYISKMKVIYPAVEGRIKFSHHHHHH
Procedure: (§1) Binding of MEDI9447 to wild-type and mutant CD73 proteins was measured by surface plasmon resonance (SPR) using a ProteOn instrument (BioRad). CD73 crude cell supernatant protein samples were diluted to 3 µg/ml in PBS, 0.005% Tween-20, pH 7.4 (BioRad) and immobilized to ~400 RU on a HTG tris-NTA sensor chip (BioRad) pre-activated with 10 mM NiSO₄, 10 mM MES, pH 6.0 (BioRad). An equivalently diluted crude cell supernatant sample from non-transfected cells was included as a reference channel control. Sensorgrams were recorded by flowing two-fold dilutions of MEDI9447 prepared in PBS, 0.005% Tween-20, pH 7.4, ranging from 5 nM to 0.31 nM. […] Antibody binding was measured at a flow rate of 100 µL/min with a 3 min association phase and 20 min dissociation phase. The sensor chip surface was regenerated between each run by an 800 s injection of 300 mM EDTA, pH 8.5 (BioRad) at a flow rate of 30 µL/min. Binding kinetics were analyzed using the ProteOn data analysis software. Double referencing was performed and, unless noted otherwise, a 1:1 Langmuir binding model was utilized to fit the data. Some CD73 variants containing mutations within the amino acid region 171-188 fit poorly to a 1:1 model (i.e., Chi² values >10% of Rmax). Where noted, these variants were fit with a heterogenous antigen (2:1) model. […] Due to the assay format (antigen immobilized) and the dimeric state of CD73, KD values may be exaggerated due to avidity effects. However, it is not anticipated that this impacts ranking of MEDI9447 binding to the different CD73 variants.

HDX_E2 CD73 chimera = biological target: T3, HDX_E2 CD73 chimera (human; chicken, UniProt P21589 27-553); assay: SPR (ProteOn), CD73 variant immobilized; 2:1 fit
T3 construct: also called KO_182-187
T3 chain: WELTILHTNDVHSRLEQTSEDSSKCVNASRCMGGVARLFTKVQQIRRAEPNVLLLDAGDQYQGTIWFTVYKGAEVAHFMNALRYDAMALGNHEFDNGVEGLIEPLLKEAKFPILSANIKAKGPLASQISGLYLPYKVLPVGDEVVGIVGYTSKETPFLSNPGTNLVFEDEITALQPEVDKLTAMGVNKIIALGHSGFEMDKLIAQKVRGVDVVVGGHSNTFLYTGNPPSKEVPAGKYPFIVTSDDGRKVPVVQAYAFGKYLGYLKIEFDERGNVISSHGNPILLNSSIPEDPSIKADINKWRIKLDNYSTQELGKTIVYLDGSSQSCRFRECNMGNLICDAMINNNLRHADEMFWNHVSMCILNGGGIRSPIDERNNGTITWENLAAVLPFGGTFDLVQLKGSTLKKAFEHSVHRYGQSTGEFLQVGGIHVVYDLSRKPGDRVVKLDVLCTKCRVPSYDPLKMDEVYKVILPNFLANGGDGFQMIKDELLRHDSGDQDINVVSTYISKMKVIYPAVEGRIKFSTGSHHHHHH
Procedure: as §1

Cynomolgus CD73 ECD = biological target: T4, Cynomolgus CD73 ECD (cynomolgus, UniProt A0A2K5V5U7 27-549); assay: SPR (Proteon)
T4 construct: extracellular domain; also called cyno CD73
T4 sequence: T1 sequence with M199T, T350A, V466I

B1: MEDI9447 (antibody, human IgG1, lambda, V domains shown)
VH: EVQLLESGGGLVQPGGSLRLSCAASGFTFSSYAYSWVRQAPGKGLEWVSAISGSGGRTYYADSVKGRFTISRDNSKNTLYLQMNSLRAEDTAVYYCARLGYGRVDEWGRGTLVTVSS
VL: QSVLTQPPSASGTPGQRVTISCSGSLSNIGRNPVNWYQQLPGTAPKLLIYLDNLRLSGVPDRFSGSKSGTSASLAISGLQSEDEADYYCATWDDSHPGWTFGGGTKLTVLG
notes: Human IgG1-TM (L234F, L235E, P331S), lambda light chain; also called clone 10.3 antibody; 73combo3
Q: Which results are given for B1?
A: FabZAP internalization, EC50, MDA-MB-231 [1]: 3.5 pM; koff [2]: 0.000245 s⁻¹; kon [2]: 9.11e+06 M⁻¹ s⁻¹; Kd (HDX_E2 CD73 chimera): 2830 pM; koff (HDX_E2 CD73 chimera): 0.0162 s⁻¹; kon (HDX_E2 CD73 chimera): 5.73e+06 M⁻¹ s⁻¹; Kd (Cynomolgus CD73 ECD): 7 pM
